Data published in patent publication US20050069530A1.

Target: human type IIA sPLA2 (human) (UniProt P14555)
Assay: cell-based or functional assay

Chain of human type IIA sPLA2 (human) (P14555 21-144): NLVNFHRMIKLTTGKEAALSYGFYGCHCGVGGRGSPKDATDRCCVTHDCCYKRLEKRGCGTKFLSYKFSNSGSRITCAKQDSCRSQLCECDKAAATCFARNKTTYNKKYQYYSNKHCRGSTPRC

Substance	IC50 of sPLA2 enzyme inhibition (3H-labelled E. coli membranes as substrate) [µM]	Mean % Inhibition at fixed peptide concentration [5 µM] [%]
D65A-PIP (59-67) (peptide)	5.45	
D65E-PIP (59-67) (peptide)	4.95	
D65S-PIP (59-67) (peptide)	5.25	
PIP (59-67) dimer (peptide)	1.19	74.5
